Test results published in the domain aggregation screens of Martell et al. (2025).

Assay: soluble fraction after stress (log2 fold change); higher = more stays soluble; pooled small domains, quantitative proteomics
Conditions: stress: 75 degC
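Further: 20 min heating vs room temperature control held 20 min.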

| Sequence | soluble fraction (log2) |
| --- | --- |
| HMSDTVDITKLGIAGKTKEAAEALLKENGFSVESKEENSDTIEKGKVISYSPTKPKNGDRITLIVSSGKK | 0.294 |
| HMSEDTYNTLTKGTRVYNGVDYGAKYGYNPLYYFLNYNDLRIAYGADPAKLVEHYALFGIKENRVANRQIT | -1.33 |
| HMSEEELETSGLVKRSAKGNLYDIFRHRVMVPIIDVRGAIIAFGGRVLDDSKPKYINSPETMVY | -0.0708 |
| HMSEEQLKAFLEKVQGDTSLQEKLKAAADANAVVEIAKEAGFSISADDLKNAQSELSEEELE | -0.00468 |
| HMSEEVDVPDLVGMQLEEAEKSLEPLGLKLKIAKEIPNSEFEKGKIVDQKTKAGEKVKTGYTIEVTVSSG | -0.126 |
| HMSEFAYPISLNGKTKFNLALSLALTKEEIEKEVLANADVQKFLNGQTPKKLIVVPGKIVNVV | -0.386 |
| HMSEGEMSQWIIAQAKQQGGGFQPDAARLLGSYVGNNTLRARQEIDKLLTYVGPSRVVTPEDVVLLTA | -0.23 |
| HMSEHKFIVPEEFNLKRLDQTVAAQFEKISRTKISKIIKSSLLKVNDKVVTDQSIKIKQDDVITFTEIKDQ | -0.421 |
| HMSEKRLHLVVDESDVNTRIDKYIADELDGYSRSFIQKLIKDNNVLVNGRAVKPNYNIGISDNIDIVLPKL | 0.0186 |
| HMSELIDSLTEAVRSAPDAVPLRLHLAELLLADGQRDRAFAQLGQVLAKDPQNARALEMLGVGS | -0.129 |
| HMSELSEVIEKTFEELPEELKLIVKLREIDDLSYDEISNKIGIPIGTVRSRLHRAREILINIIKN | -2.5 |
| HMSELSGSQLKAIREEKHIPLEQVASATRIRLSLLEALEMDEYAELGSRTQARGFLKLYADFLGVPFEA | -1.53 |
| HMSEMDNMEWVREQYFQNMIYEIGEWVRDKKTGIVGEVVKRGTNYVTVVQEDFSLHKIWLEDLETTEK | -0.841 |
| HMSEMLPFDEARRQFERDYLVQLLKLTSGNVSQAARLARRNRTDFYALLGRHQLEPASFKPE | -0.971 |
| HMSEMVIPEDFLAALETNPQAKAFYATLNRQNQYAVYHRLQTAKRPETRAKRIADFVAQLAAGKRF | -1.03 |
| HMSEPHPPFQVVAQFPYKSEYEDDLNFEKDQIITVTSIEDDEWYYGDFKNKGGELVEGIFPKSFVTVK | -0.31 |
| HMSEPQYKVLFSNLDDRDGGAIVTALGAMNVPYKYNDTGTALLVPADRVYDARLQLASQGLPRG | 0.262 |
| HMSEPTVVAINETLTSERLDRYLTTQLPHISRGGIQRLLRKGNILVDGKPAKPTQHPVAGQTVEITWPIPK | -0.607 |
| HMSEQMQVGELVFQLHRKAIKNLHINVLPPDGFVRVSAPQAMTETAIRTAVISRLPWIRRQQQAFAAQ | -3.48 |

| Sequence | soluble fraction (log2) |
| --- | --- |
| HMSERVVEIDPSQLRPGLFIRLPSGWMNHPFLFNQFRINSAEQVEIIQKLGLKTVQYLPERSSTQALPRA | -1.95 |
| HMSESEDFQNRWRPWRSLLDDETPVVREALVDQLKLFPEEGRLFLQQMSEEDDPISARHAFELIKSLGW | -0.363 |
| HMSETAVTYNEDFEADGSLRPNEQAVLDAFTGVLKLTVSELEKKTGLRNVVPVVASLMAKGAVEVSEELK | -0.0304 |
| HMSETEWGEIYRKVMAAGLIPARSVRERLLALPSIEPLLQAAEAAGSKGMLDETLLDSLLSKT | 0.0662 |
| HMSETLESYTTRLKQLEEIADSFQGVDKTFAIQAGREIRVMVVPEQISDDDMILLARDISNQIEENLDY | -0.234 |
| HMSEVIYVAEDNVGQRIDVFLVNKLVDASRANIQKNIVDGVILVNNKNVKANYKLRLGDVVEIRTQ | -1.38 |
| HMSEVPAAVLVTGGSINLREAPSTDATIIDVAQVGEKMTVLAEKNSWYQVSRGGRNVWVASWVVDPLT | -0.066 |
| HMSEVTYQETLRLLRRAIDVLPQQSRQIILLGLSGKNNNEVAEMLGISVNTVKTLKKGAYKSLRNSL | -1.87 |
| HMSEYITEGWLREKFGLGWGTEVHLPLDSRLTPAAHQLLEERKIVIKYIDAEGRVFNPDKSGEEAPVQ | -0.41 |
| HMSEYVIVTGEKVNLRVGPGMDYEIAGQVVKGDKLELLASEGDWSKVKTGSGSIYYISSSLVQKA | -0.157 |
| HMSFDGFSDRLKSVLNSGKYTQKEAAEKINISEYSFTKYLNGRIPQTEILYKIARLYNKSMEWLLTGKDPI | -2.74 |
| HMSFGWELYKGKEGIADTDLHPSGWIRIADKRVFAVSEGEFIEKGLEIIVLSVDGNRIVVRELK | -1.93 |
| HMSFGWETLEGKEGVTDTDLHPSGWVKVGDEKIFVVSQGEFLGKGTDIVVVSVDGNRVVVKELI | -0.998 |
| HMSFKQARFMMDAANGKALAWLYSHAEVLDRKDQGENIEIHVMISPADLSRFVNAFGYQPVQS | -1.07 |
| HMSFMFEISVIRSQYNMQDPESKTGFYNAIAKKLLEFPEKLERDNYTEAVAREYMIPETDLKNLVNSMGG | -3.12 |
| HMSFNGTILSNYQKTYPNLAKFTYDQANDALVYEGNFIKLNGYGLSRIDPVFFNMNPDEIFIFIKNG | -3.85 |
| HMSFNTNENKNLLWELMNKHNLFKDIDNQHYQEVQKLFEEEIVFISNNNKSLDLVEQNKKFLSSIITKLNK | -1.84 |
| HMSFPQVELNTNKGRIVLELNSEKAPKTVANFLEYVRDGFYDGVIFHRVIDGFMIQGGGFDENFKEKA | -0.6 |
| HMSFSPYLVRVSITDLNIRKGPGTNYAKTGKFTGKGVFTIVEMQTGKGSDTGWGRLKSGAGWISLDYTEKI | -3.47 |
